The text below walks through data of patent US7910549.

The assay deals with complete MN/CA IX protein (MN/CA IX+), from Vero cells infected with vaccinia virus carrying the complete coding region of MN/CA IX (human) (UniProt Q16790). The experiment in a line: cell-based or functional assay.

“monoclonal antibody M75 (MAb M75), secreted by hybridoma VU-M75, ATCC HB 11128” yielded a cell attachment to purified MN/CA IX+ (fold dilution of ascites fluid) of 1000.
